The data set has as its system O=C1CCCCC1. Put plainly: purified protein. The following applies: apparent, 0.3 mM NADPH, 50 mM sodium phosphate pH 7.7, 25 °C.

Consider “Ac CHMO (cyclohexanone monooxygenase) (Acinetobacter johnsonii)”, for which the Km turned out to be 4.09 ± 1.81 µM.

Values taken from article PMC10453637.
